Target: Neisseria meningitidis Cas9 (NmeCas9, from strain 8013), 6×His-tagged (Neisseria meningitidis (strain 8013)) (UniProt C9X1G5)
UniProt C9X1G5, sequence (C9X1G5 whole entry): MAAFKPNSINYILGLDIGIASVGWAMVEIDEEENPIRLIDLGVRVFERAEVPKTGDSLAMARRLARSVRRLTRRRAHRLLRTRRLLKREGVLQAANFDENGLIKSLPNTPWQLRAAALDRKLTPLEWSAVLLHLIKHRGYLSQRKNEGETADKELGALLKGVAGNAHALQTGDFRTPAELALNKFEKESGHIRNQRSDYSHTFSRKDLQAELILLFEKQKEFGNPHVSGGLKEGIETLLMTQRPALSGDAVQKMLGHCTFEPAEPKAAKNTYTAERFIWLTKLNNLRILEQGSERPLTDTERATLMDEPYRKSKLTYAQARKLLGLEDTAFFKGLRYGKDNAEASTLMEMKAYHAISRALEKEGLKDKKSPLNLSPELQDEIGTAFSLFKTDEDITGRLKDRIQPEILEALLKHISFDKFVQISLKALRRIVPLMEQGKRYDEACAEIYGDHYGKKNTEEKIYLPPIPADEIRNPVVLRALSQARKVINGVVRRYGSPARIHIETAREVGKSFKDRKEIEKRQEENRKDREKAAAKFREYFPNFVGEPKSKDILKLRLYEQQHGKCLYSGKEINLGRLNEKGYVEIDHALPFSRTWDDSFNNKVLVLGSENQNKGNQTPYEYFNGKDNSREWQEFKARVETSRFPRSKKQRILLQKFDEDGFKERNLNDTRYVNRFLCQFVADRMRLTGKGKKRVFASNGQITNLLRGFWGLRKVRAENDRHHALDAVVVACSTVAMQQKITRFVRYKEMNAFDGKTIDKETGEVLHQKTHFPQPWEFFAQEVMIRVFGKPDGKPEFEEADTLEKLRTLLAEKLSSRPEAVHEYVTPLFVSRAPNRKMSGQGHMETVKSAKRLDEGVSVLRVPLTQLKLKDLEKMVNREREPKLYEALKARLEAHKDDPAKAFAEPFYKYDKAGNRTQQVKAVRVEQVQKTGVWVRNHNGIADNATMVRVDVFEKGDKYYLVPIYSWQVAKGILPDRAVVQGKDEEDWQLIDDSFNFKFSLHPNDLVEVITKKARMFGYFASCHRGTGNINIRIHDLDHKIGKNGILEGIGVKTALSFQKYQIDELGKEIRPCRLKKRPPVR

in vitro cleavage of linearized target plasmid by NmeCas9-sgRNA; molar excess of Acr over Cas9 at complete inhibition (fold molar excess of Acr): 7
Substance: AcrIIC5Smu, untagged (natural protein)
